Reference: patent US20200079833A1 (AstraZeneca / MedImmune, published 2020)
Starred links: 1 amine or outer side, 2 acyl side, 3 side chain; linkers in the order of their positions; H or OH if unused. Non-standard residues stand in square brackets, D forms with d. Groups on a side chain read outwards from the residue. Primed or numbered codes have the meaning given here. No end group written: not given here. *: point of attachment. γGlu = O=C(O)[C@H](CCC(=O)[*:2])N[*:1]; Palmitoyl = CCCCCCCCCCCCCCCC(=O)*; αMeF = C[C@](N)(Cc1ccccc1)C(=O)O; αMeK = C[C@](N)(CCCCN)C(=O)O; αMeS = C[C@](N)(CO)C(=O)O; PEG2′ = not defined here; Aib = CC(C)(N)C(=O)O

biological target: GLP-1 receptor (GLP-1R), primary cAMP assay (human, UniProt P43220 24-463); experiment: cell-based or functional assay

Row | Binder | Primary assay EC50 (cAMP) Mean [nM] | Primary assay EC50 (cAMP), n1 [nM] | Primary assay EC50 (cAMP), n2 [nM]
1 | H[Aib]EGS[αMeF]TSDV[αMeS]SK([PEG2′-PEG2′-γGlu-Palmitoyl])LEGEAA[αMeK]EFIAK([PEG2′-PEG2′-γGlu-Palmitoyl])VVEGG-NH2 [SEQ ID NO: 266] | 0.479 | 0.4 | 0.557
2 | H[Aib]EGS[αMeF]TSDK([PEG2′-PEG2′-γGlu-Palmitoyl])SSYLEGEAA[αMeK]EFIAWK([PEG2′-PEG2′-γGlu-Palmitoyl])VEGG-NH2 [SEQ ID NO: 261] | 0.418 | 0.414 | 0.422
3 | H[Aib]EGS[αMeF]TSDK([PEG2′-PEG2′-γGlu-Palmitoyl])SSYLEGEAA[αMeK]EFIAK([PEG2′-PEG2′-γGlu-Palmitoyl])VVEGG-NH2 [SEQ ID NO: 260] | 0.389 | 0.334 | 0.443
4 | H[Aib]EGS[αMeF]TSDK([PEG2′-PEG2′-γGlu-Palmitoyl])SSYLEGEAA[αMeK]EFIK([PEG2′-PEG2′-γGlu-Palmitoyl])WVVEGG-NH2 [SEQ ID NO: 259] | 0.313 | 0.339 | 0.287

The remaining lines, values ahead:

Row | Primary assay EC50 (cAMP) Mean [nM] | Primary assay EC50 (cAMP), n1 [nM] | Primary assay EC50 (cAMP), n2 [nM] | Binder
5 | 0.821 | 0.891 | 0.75 | H[Aib]EGS[αMeF]TSDV[αMeS]SYK([PEG2′-PEG2′-γGlu-Palmitoyl])EGEAA[αMeK]EFIK([PEG2′-PEG2′-γGlu-Palmitoyl])WVVEGG-NH2 [SEQ ID NO: 271]
6 | 0.762 | 0.741 | 0.783 | H[Aib]EGS[αMeF]TSDV[αMeS]SYK([PEG2′-PEG2′-γGlu-Palmitoyl])EGEAA[αMeK]EFIAWK([PEG2′-PEG2′-γGlu-Palmitoyl])VEGG-NH2 [SEQ ID NO: 273]
7 | 0.335 | 0.339 | 0.331 | H[Aib]EGS[αMeF]TSDV[αMeS]SYK([PEG2′-PEG2′-γGlu-Palmitoyl])EGEAA[αMeK]EFIAK([PEG2′-PEG2′-γGlu-Palmitoyl])VVEGG-NH2 [SEQ ID NO: 272]

biological target: glucagon receptor (GCGR), primary cAMP assay (human, UniProt P47871 26-477); experiment: cell-based or functional assay
Sequence (P47871 26-477): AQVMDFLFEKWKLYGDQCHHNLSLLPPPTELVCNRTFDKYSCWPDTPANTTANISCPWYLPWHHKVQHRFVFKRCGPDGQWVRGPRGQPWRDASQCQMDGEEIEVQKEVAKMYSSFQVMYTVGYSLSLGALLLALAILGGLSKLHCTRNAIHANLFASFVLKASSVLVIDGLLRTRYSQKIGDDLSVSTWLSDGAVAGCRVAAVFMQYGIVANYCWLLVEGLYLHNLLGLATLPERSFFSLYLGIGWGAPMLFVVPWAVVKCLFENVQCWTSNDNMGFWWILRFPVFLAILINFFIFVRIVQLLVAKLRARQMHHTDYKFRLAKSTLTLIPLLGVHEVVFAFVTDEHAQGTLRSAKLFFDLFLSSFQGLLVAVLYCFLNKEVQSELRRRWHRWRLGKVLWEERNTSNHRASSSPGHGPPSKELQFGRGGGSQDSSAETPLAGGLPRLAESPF

Row | Binder | Primary assay EC50 (cAMP), n1 [nM] | Primary assay EC50 (cAMP), n2 [nM]
8 | H[Aib]EGS[αMeF]TSDV[αMeS]SK([PEG2′-PEG2′-γGlu-Palmitoyl])LEGEAA[αMeK]EFIAK([PEG2′-PEG2′-γGlu-Palmitoyl])VVEGG-NH2 [SEQ ID NO: 266] | 22.2 | 22.2
9 | H[Aib]EGS[αMeF]TSDK([PEG2′-PEG2′-γGlu-Palmitoyl])SSYLEGEAA[αMeK]EFIAWK([PEG2′-PEG2′-γGlu-Palmitoyl])VEGG-NH2 [SEQ ID NO: 261] | 23 | 23
10 | H[Aib]EGS[αMeF]TSDK([PEG2′-PEG2′-γGlu-Palmitoyl])SSYLEGEAA[αMeK]EFIAK([PEG2′-PEG2′-γGlu-Palmitoyl])VVEGG-NH2 [SEQ ID NO: 260] | 21.9 | 21.9
11 | H[Aib]EGS[αMeF]TSDK([PEG2′-PEG2′-γGlu-Palmitoyl])SSYLEGEAA[αMeK]EFIK([PEG2′-PEG2′-γGlu-Palmitoyl])WVVEGG-NH2 [SEQ ID NO: 259] | 21.4 | 21.4

The remaining lines, values ahead:

Row | Primary assay EC50 (cAMP), n1 [nM] | Primary assay EC50 (cAMP), n2 [nM] | Binder
12 | 21.4 | 21.4 | H[Aib]EGS[αMeF]TSDV[αMeS]SYK([PEG2′-PEG2′-γGlu-Palmitoyl])EGEAA[αMeK]EFIK([PEG2′-PEG2′-γGlu-Palmitoyl])WVVEGG-NH2 [SEQ ID NO: 271]
13 | 21.5 | 21.5 | H[Aib]EGS[αMeF]TSDV[αMeS]SYK([PEG2′-PEG2′-γGlu-Palmitoyl])EGEAA[αMeK]EFIAWK([PEG2′-PEG2′-γGlu-Palmitoyl])VEGG-NH2 [SEQ ID NO: 273]
14 | 21.9 | 21.9 | H[Aib]EGS[αMeF]TSDV[αMeS]SYK([PEG2′-PEG2′-γGlu-Palmitoyl])EGEAA[αMeK]EFIAK([PEG2′-PEG2′-γGlu-Palmitoyl])VVEGG-NH2 [SEQ ID NO: 272]

biological target: T1, glucose-dependent insulinotropic peptide (gastric inhibitory polypeptide) receptor (GIPR), primary cAMP assay (human, UniProt P48546 22-466); experiment: cell-based or functional assay
T1 sequence (looked up): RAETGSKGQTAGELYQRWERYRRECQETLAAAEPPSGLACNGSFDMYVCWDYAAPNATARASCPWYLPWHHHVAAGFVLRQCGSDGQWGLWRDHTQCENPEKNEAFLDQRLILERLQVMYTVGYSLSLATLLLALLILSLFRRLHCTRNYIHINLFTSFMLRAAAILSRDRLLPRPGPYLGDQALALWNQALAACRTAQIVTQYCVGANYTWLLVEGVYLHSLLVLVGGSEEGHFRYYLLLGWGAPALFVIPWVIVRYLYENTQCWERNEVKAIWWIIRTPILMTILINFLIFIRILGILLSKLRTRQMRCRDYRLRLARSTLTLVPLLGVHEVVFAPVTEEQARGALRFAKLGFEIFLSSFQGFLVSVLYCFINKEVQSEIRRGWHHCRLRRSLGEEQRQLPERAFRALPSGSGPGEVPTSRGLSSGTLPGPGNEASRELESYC

Row | Binder | Primary assay EC50 (cAMP), n1 [nM] | Primary assay EC50 (cAMP), n2 [nM]
15 | H[Aib]EGS[αMeF]TSDV[αMeS]SK([PEG2′-PEG2′-γGlu-Palmitoyl])LEGEAA[αMeK]EFIAK([PEG2′-PEG2′-γGlu-Palmitoyl])VVEGG-NH2 [SEQ ID NO: 266] | 22.2 | 22.2
16 | H[Aib]EGS[αMeF]TSDK([PEG2′-PEG2′-γGlu-Palmitoyl])SSYLEGEAA[αMeK]EFIAWK([PEG2′-PEG2′-γGlu-Palmitoyl])VEGG-NH2 [SEQ ID NO: 261] | 23 | 23
17 | H[Aib]EGS[αMeF]TSDK([PEG2′-PEG2′-γGlu-Palmitoyl])SSYLEGEAA[αMeK]EFIAK([PEG2′-PEG2′-γGlu-Palmitoyl])VVEGG-NH2 [SEQ ID NO: 260] | 21.9 | 21.9
18 | H[Aib]EGS[αMeF]TSDK([PEG2′-PEG2′-γGlu-Palmitoyl])SSYLEGEAA[αMeK]EFIK([PEG2′-PEG2′-γGlu-Palmitoyl])WVVEGG-NH2 [SEQ ID NO: 259] | 21.4 | 21.4

The next lines start with the values.

Row | Primary assay EC50 (cAMP), n1 [nM] | Primary assay EC50 (cAMP), n2 [nM] | Binder
19 | 21.4 | 21.4 | H[Aib]EGS[αMeF]TSDV[αMeS]SYK([PEG2′-PEG2′-γGlu-Palmitoyl])EGEAA[αMeK]EFIK([PEG2′-PEG2′-γGlu-Palmitoyl])WVVEGG-NH2 [SEQ ID NO: 271]
20 | 21.5 | 21.5 | H[Aib]EGS[αMeF]TSDV[αMeS]SYK([PEG2′-PEG2′-γGlu-Palmitoyl])EGEAA[αMeK]EFIAWK([PEG2′-PEG2′-γGlu-Palmitoyl])VEGG-NH2 [SEQ ID NO: 273]
21 | 21.9 | 21.9 | H[Aib]EGS[αMeF]TSDV[αMeS]SYK([PEG2′-PEG2′-γGlu-Palmitoyl])EGEAA[αMeK]EFIAK([PEG2′-PEG2′-γGlu-Palmitoyl])VVEGG-NH2 [SEQ ID NO: 272]
